experiment: yeast display, Sf9 membrane polyspecificity reagent, FACS + sequencing; frameworks hold sequencing errors
In short: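 Polyreactivity labels are assigned by the sorting gate from which each nanobody was recovered. The gates were low and high (top ~1%), set on anti-HA fluorescence for expression and streptavidin fluorescence for reagent binding. Before sorting, galactose-induced (36–48 hours) yeast display cells were stained for 1 hour at 4 °C with 10% biotinylated, detergent-solubilized Sf9 membrane reagent.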

Sequence | polyreactivity (PSR sort gate)
QVQLVETGGGLVQAGGSLRLSCAASARTFVPYAMGWYRPAPGKERELVADITDGDVSTYADSVNGRFTISRDKAKNTVYLQMNSLKPDDNAVYYCAAQYRRLVTRWPVTFGYWGQGTQVTVSS | low polyreactivity
QVQLVESGGGLVQAGGSLRLSCAASGRIIKFYAMGWYRQAPGKERELVAVIRSGTRTKYADSVKGRFTISRDNAKNTVYLQMNSLKPVDTAVYYCIRYFSEALLHGSSYNRYYYWGQGTQVTVSS | low polyreactivity
QVQLVESGGGLVQAGGSLRLSCAACGYSFPAYAMGWYRQAPGKERELVAAINRRGGTTYYADSVKGRFTISRDNAKNTVYLQMNSLKPEDTAVYYCARYSGLKDMDYWGQGTQVSVSS | high polyreactivity
HVQLVETGGGLVQAGGSLRLSCAASGRIFYPYPMGWYRQAPRKERELLARISWGGGATYYADSVKGRFTISRDNAQNTVFLQMNSLKPEDTAVYYCAASYVGYWYRRGYGYWGQGTQVTVSS | high polyreactivity
QVQLVESGGGLVQAGGSLRLSCAASGRIFGRNTMGWYRQAPGKEREFVAAITWSGGSTYYADSVKGRFTISRDNAKNTVYLQMNSLKPEDTAVYYCAAPSYYRYDYWGQGTQVTVSS | high polyreactivity
QVQLVESGGGLVQAGGSLRLSCAASGSTFKSYAMGWYRQAPGKERELVAAISYRGGSTYYADSVKGRFTISRDNAKNTVYLQMNSLKPEDTAVYYCAAVKLYSYYYWGQGTQVTVSS | high polyreactivity
QVQLVESGGGLVQAGGSLRLSCAASGSTFFSNTMGWYRQAPGKERELVAAITSRGGRTYYADSVKGRFTISRDNAKNTVYLQMNSLKPEDTAVYYCAARFVLHGVYLKFYWGQGTQVTVSS | high polyreactivity
QVQLVESGGGLVQAGGSLRLSCAASGITFRGYAMGWYRQAPGKERELVADITWNGGSTYYADSVKGRFTISRDNAKNTVYLQMNSLKPEDTAVYYCAADGYPIYWSSYRFYYWGQGTQVTVSS | high polyreactivity
QVQLVESGGGLVQAGGSLRLSCAASGGILDTYALGWYRQAPGKERELVAAITSGGNTNYADSVKGRFTISRDNAKNTVYLQMNSLKPEDTAVYYCAALYTVSYLTSPVSYRYDYWGQGSQVTVSS | low polyreactivity
QVQLVESGGGLVQSGGSLRLSCAASGYIFGYYAMGWYRQAPGKERELVADITWRGDSTYADSVKGRFTISRDNAKNTVYLQMNSLKPEDTAVYYCAADIATEYWYTGYDHWGQGTQVNVSS | low polyreactivity
QVKLVESGGGLVQAGGSLRLSCAASGFTYFINGMGWYRQAPGKERQLVAAIRSSGASTYYADSVKGRFTISRDNAKNTVYLQMNSLKPEDTAVYYCNARSSVCNSGADYDYWGQGTQVTVSS | low polyreactivity
QVQLVESGGGLVQAGGSLRLSCAASGFTFGRYAMGWYRQAPGKERELVATITRTGSTNYADSVKGRFTISRDNAKNTVYLQMNSLKPEDTAVYYCNAGPDRRVSYYRLLDHWGQGTQVTVSS | low polyreactivity
QVQLVESGGGLVQAGGSLRLSSAASGSNFPTNAMGWYRQAPGKETELVAAITDGGSTNYADSVKGRFTISRDNAKNTVYLQMNSLKPEDTAVYYCAAVGFKTVLPEYDYWGKGTQVTVSS | low polyreactivity
QVQLVESGGGLVQAGGSLRLSCAASGSIFAAYTMGWYRQAPGKERELVAAISVSTVSTYYADSVKGRFTISRDTAKNTVYLQMNRLKPEDTAVYYCNADATDSYPEKDEHDSWGQGTQVTVSS | low polyreactivity
QFQLVESGGGLVQAGGSHRLICAASGRTFPYYAKGWYRQAPGKERELVATINTGTSTNYADSVKGRFTISRDNANNTVYLQMHSLKPEDTAVYYCAAATTYGKSEYDYWGQGTQVTVSS | high polyreactivity
QFQLVESGGGLVQAGGSLRLSCAASGSIFELNAKGLYRTAPGKERELVAAITSSGSSTYYADSVKGRFTISRDNAKNTVYLQMNRLKPEDTAVYYCFRPHDYWGQGTQVTESS | low polyreactivity
QDQLVDSGGGLVQAGGSLRLSCAASGRTFGYYAMGWYRQAPGKERELVAAISISTGRTYYADSVKGRFTISRDNAKNTVYLQMNSLKPEDTAVYYCAAYYYGGRYHSEYDYWGQGTQVTVSS | high polyreactivity
QVQLVESGGGIVQAGVSLRLSCAASGSTFESNAMGWYRQAPGKECELVASISGSGGSTFYADSVKGRFTISRDNAKNTVYLHMNSLKPEDTARYYCAAYKEPYYEESGYWGQVTQVTVSS | low polyreactivity
QVQLVESRGGLVQAGGSLRLSCAPSGSTFHYYAMGWYRQAQGKERELDAAISDRDGGTFYADSVKGRFTISRDNATNTVYLQINSLKPEDTAVYYCYARKRGARFILGYDYWGQGPQVTVSS | low polyreactivity
QVQLVESGGGLVQAGGSLRLSCAASGRTFEYYAMGWYRQAPGKEREFVAAISRSGGSTYYADSVKGRFTISRDNAKNTVYLQMNSLKPEDTAVYYCAASAIRRSQRFYHWGQGTQVTVSS | high polyreactivity
QVQLVESGGGLVQAGGSLRLSCAASGSTFYPYAMGWYRPAPGKERELVAAINWSGGTTYYADSVKGRFTISRDNAKNTVYLQMNSLKPVDTAVYYCAADGYPPGYGYWGQGTQVTVSS | low polyreactivity
QVQLVESGGGLVQAGGSLRLSCAASGSTLRRNAMGWYRQAPGKERELVAAISSGGSTYYADSVKGRFTISRDNAKNTVYLQMNSLKPEDTAVYYCNAAVPRGRYTSYYRSGWLDYWGQGTQVTVSS | high polyreactivity

Sequence | polyreactivity (PSR sort gate)
QVHLVESGGGLVQAGGSLRLSCAASGYVMGWYRQAPGKERELVAAITRGTSTYYADSVKGRFTISRDNAKNTVYLQMNSLKPEDTAVYYCAARTTSGEWPPGNIGTYLYDYWGQGTQVTVSS | low polyreactivity
QVQLQESGGGLVQAGGSLRLSCAASGTISPLPAMGWYRQAPGKEREFVAGIDTGAITNYADSVKGRFTISRDNAKNTVYLQMNSLKPEDTPVYYCAATFYYSGHDDYWGQGTQVPVSS | low polyreactivity
QVQLVESGGGLVQAGGSLRLSCAASGSTFHRNAMGWYRQAPGKERELVASISIGGSTNYADSVKGRYTISRDNAKNTVYLQMNSLKPEDTAVYYCATEPNPRRPRVDYDYWGQGTQVTVSS | low polyreactivity
QVQHVDSGGGLVQAAGSLRLSCAASGRTFGVYAMGWYRQAPGKERELVATITSVDRTNYADSVKGRFTISRENAKNTVYLLMNSLKPDDTAVYYCADVGRGPRYFYWGQGTQVTVSS | high polyreactivity
QVQLVESGGGLVQAGGSLRLSCAASGSTLVYYDMGWSRQAPGKERELVATITGTDSTYYADSVKGRFTISRDNAKNTVYLQMNSLKPEDTADCAADRAASRPDYDYWGQGTQVTVSS | low polyreactivity
QVQLEESGVGLVQAGGSLRLSCAASGFIFSFYAMGWSRQAPGKERELVAVISKSGGSTYYADSVKGRFTISRDNAKNTVYLQMNSLKPEDTAVYFCAADSTVGRLLSFDYWGQGTQVTVSS | low polyreactivity
QVQLVESGGGLVQAGGSLRLSCAASGSTFRSYAMGWYRQAPGKERELVAAITSSGGRTYYADSVKGRFTISRDNAKHTVYLQMNSLKPEDTAVYYCAARTYSWGDWGQGTQVTVSS | high polyreactivity
QVQLVESGGGLVQAGGSLRLSCAASGSTSYDYAMGWYRQAPGKERELVAAISRRGGSTYYADSVKGRFTISRDNAKNTVYLQMNSLKPEDTAVYYCAARSYSYLGWFSYDYWGQGTQVTVSS | low polyreactivity
QVQLVESGGGSVQAGGSLRLCCAASGRILESYAMGWYRQAPGKERELVAAINSGASTYYADSVKGRFTISRDNAKNTVYLPMNSLKPEDTAVYYCAADYRYGAYDDWGQGTQVTVSS | low polyreactivity
QVQLVESGGGLVQAGGSRRLSCAASGRTFWAYAMRCYRQAPGKERELVAAITASGTRTYYADSVKGRFTISRDNAMNTDYLQRNRLKPQDTAGYYCAAERIWWAHAYPTYVANDYWGQGTQGTVSS | high polyreactivity
QDQLVESGGGLDQAGGSLRLSCAATGGIIRQNVMGWYRQPPGKERELVAAISRRGVITYYADSVKGRFTISRDNAKNTVYLQMNSLKPDDTAVYYCNYKPTWDYSYWGQGTQLTVSS | high polyreactivity
QVQLVESGGGLVQAGGSLRLSCAASGRIFQYYAMGWYRQAPGKERELVAAISSRGGSTSYADSVKGRFTISRDKAKNTVYLQMNSLKPEDTAVYYCNAKSRISYWYDYWGQGTQVTVSS | high polyreactivity
QVQLEESGGGLVQAGGSLRLSCAASGLIIRAYAMGWSRQAPGKERELVAAITSSSGSTYYADSVKGRFTISRDNGKNSVYLQMNSLNPEDTAVYYCNAYSTFGWYDYWGQGTQVTVSS | low polyreactivity
QVQLVESGGRLVQAGGSLRLSCAASVRIFFQNAMGWSRQAPGKERELVAGISGSGGSTYYADSVKGRFTISRDNAKNTVYLQMNSLKPEDTAVYYCAARYGIISSFEYDYWGQGTQVTVSS | high polyreactivity
QVQLVESGGGLVQAGGSLRLSCAASGFIFETYAMGWYRQEPGKERELVAAISRGASTYYADSVKGRFTISRDNAKNTVYLQMNSLKPEDTAVYYCAAKRLSWHRYGYWGQGTQVTVSS | low polyreactivity
QVQLVESGGGLVQAGGSLRLSCAASGLIFHQYAMGWYRQAPGKERELVAAITRSGTRTYYADSVKGRFTISRDNAKNTVYLQMNSLKPEDTAVYYCNKALRTYPLFYYWGQGTQVTVSS | high polyreactivity
QVQLVESGGGLVQAGGSLRLSCAASGSTIGWNAMGWYRQAPRKERELVAAISSSGGITYYADSVKGRYTISRDTAKNTVYLQMNSLKPDDTAVYDCAAEGDDDWVNYWGHGTQVTVSS | low polyreactivity
QVQLVESGGGLVQAGGSLRLSCAASGSTFVYYAMGWYRQAPGTERELVAAITGSVDSTYYADSVKGRFTISRDNAKNPVYLQMNSLQPEDTAVYYCAADTYSTYWGQGTQVTVSS | low polyreactivity
QVQLVESGGGLVQAGGSLRLSCAASGSIFDPYAMGWYRQAPGKERELVAGISFSGGRTYYADSVKGRFTISRDNAKNTVYLQMNSLKPEDTAVYYCNKLLTQGAYPYYYWGQGTQVTVSS | high polyreactivity
QVQLVESGGGLVQAGGSLRLSCAASGFIFGQYAMGWYRQAPGKERELVATINRSGGSTYYADSVKGRFTISRDNAKNTVYLQMNSLKPEDTAVYYCAKGPRISSSLRYSAYWKMNYWGQGTQVTVSS | high polyreactivity
QVQLVESGGGLVQAGGSLRLSCAASGGIFFSYAMGWYRQAPGKERELVAAIRTNGGTTYYADSVKGRFTISRDNAKNTVYLQMNSLKPEDTAVYYCAALPGGYYDRGEYDYWGQGTQVTVSS | low polyreactivity
